Data from patent US5804445, “High affinity mutants of nuclear factor-interleukin 6 and methods of use therefor” (Board of Regents, The University of Texas System).

Assays:
[1] = target: NF-IL6 TCD WT (tryptic core domain, aa 266-345) (UniProt P17676); assay: EMSA; details: CITED Brasier and Kumar 1994; cited from earlier work
[2] = test system: NF-IL6 full length (24-345); assay: EMSA; details: CITED Brasier and Kumar 1994; indistinguishable from TCD WT; cited from earlier work
NF-IL6 TCD S271A = NF-IL6 TCD S271A (UniProt P17676 SEQ:2-81, S271A); assay: EMSA; binding specificity indistinguishable from the other TCD peptides; details: tags: untagged, initiator Met removed; chain copies: 2 inferred; label: 32P fill-in; BamHI/BglII overhangs
NF-IL6 TCD S271A, sequence (P17676 other isoform, or with tags, fused parts or gaps S271A | S271A S271A): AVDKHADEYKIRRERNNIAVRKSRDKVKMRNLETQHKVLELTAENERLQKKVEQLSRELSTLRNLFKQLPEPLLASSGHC

NF-IL6 TCD V267A = NF-IL6 TCD V267A (UniProt P17676 SEQ:2-81, V267A); assay: as above; details: tags: untagged, initiator Met removed; chain copies: 2 inferred; label: 32P fill-in; BamHI/BglII overhangs
NF-IL6 TCD V267A, sequence (P17676 other isoform, or with tags, fused parts or gaps V267A | V267A V267A): as the sequence (P17676 other isoform, or with tags, fused parts or gaps S271A | S271A S271A) above, with V2A, A6S counted along it

NF-IL6 TCD WT (tryptic core domain, aa 266-345), sequence (P17676 other isoform, or with tags, fused parts or gaps): as the sequence (P17676 other isoform, or with tags, fused parts or gaps S271A | S271A S271A) above, with A6S counted along it

## APRE DNA (site used in cited work)
[1]
  Kd: 36 nM
[2]
  Kd: 36 nM

B1: APRE M6 (32P) (dsDNA)
DNA 1: GATCCACCACAGTTGTGATTTCACAACCTGACCA
DNA 2: TGGTCAGGTTGTGAAATCACAACTGTGGTGGATC
NF-IL6 TCD S271A
  binding result: binds
NF-IL6 TCD V267A
  binding result: binds
